Reference: publication PMC9482650, “Quantitative fragmentomics allow affinity mapping of interactomes” (Nature Communications, 2022)

How the values were obtained:
Assay in all cases: holdup assay
Design in all cases: key: below the threshold = too weak to quantify, mostly under pKd 3.1 to 4
HTRA4, P83105 = target: T1, HTRA4, P83105
T1 sequence (P83105 378-476, limits assumed, looked up): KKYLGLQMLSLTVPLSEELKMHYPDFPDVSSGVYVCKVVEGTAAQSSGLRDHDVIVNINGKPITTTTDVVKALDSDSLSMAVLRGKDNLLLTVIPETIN

SNTB1, Q13884 = target: T2, SNTB1, Q13884
T2 sequence (Q13884 107-205, limits assumed, looked up): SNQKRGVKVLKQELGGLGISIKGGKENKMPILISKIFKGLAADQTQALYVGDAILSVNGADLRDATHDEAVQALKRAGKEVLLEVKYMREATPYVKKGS

MAST2, Q6P0Q8 = target: MAST2, Q6P0Q8
LIN7C, Q9NUP9 = target: T3, LIN7C, Q9NUP9
T3 sequence (Q9NUP9 88-185, limits assumed, looked up): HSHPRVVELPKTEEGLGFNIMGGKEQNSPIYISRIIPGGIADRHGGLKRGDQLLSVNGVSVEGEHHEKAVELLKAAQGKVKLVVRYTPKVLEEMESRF

TX1BP3, O14907 = target: T4, TX1BP3, O14907
T4 sequence (O14907 10-122, limits assumed, looked up): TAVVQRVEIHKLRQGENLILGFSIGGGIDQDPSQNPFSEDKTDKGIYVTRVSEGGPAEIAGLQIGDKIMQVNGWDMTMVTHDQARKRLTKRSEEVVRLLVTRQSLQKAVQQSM

MAGI2_2, Q86UL8 = target: MAGI2_2, Q86UL8
DLG2_3, Q15700 = target: DLG2_3, Q15700
SNTA1, Q13424 = target: T5, SNTA1, Q13424
T5 sequence (Q13424 82-180, limits assumed, looked up): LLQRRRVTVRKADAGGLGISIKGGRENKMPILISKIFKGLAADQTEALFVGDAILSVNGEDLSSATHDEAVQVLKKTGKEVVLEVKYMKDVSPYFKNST

ARHGEF12, Q9NZN5-2 = target: ARHGEF12, Q9NZN5-2
DLG1_2, Q12959 = target: DLG1_2, Q12959
DLG5_1, Q8TDM6 = target: DLG5_1, Q8TDM6
Inadl_8, Q8NI35 = target: Inadl_8, Q8NI35
GRIP2_3, Q9C0E4 = target: GRIP2_3, Q9C0E4
RAPGEF6, Q8TEU7 = target: T6, RAPGEF6, Q8TEU7
T6 sequence (Q8TEU7 525-625, limits assumed, looked up): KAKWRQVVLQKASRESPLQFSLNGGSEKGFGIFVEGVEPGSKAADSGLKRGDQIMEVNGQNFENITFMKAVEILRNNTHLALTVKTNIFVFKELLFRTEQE

MAGI2_5, Q86UL8 = target: MAGI2_5, Q86UL8
RHPN1, Q8TCX5 = target: T7, RHPN1, Q8TCX5
T7 sequence (Q8TCX5 508-602, limits assumed, looked up): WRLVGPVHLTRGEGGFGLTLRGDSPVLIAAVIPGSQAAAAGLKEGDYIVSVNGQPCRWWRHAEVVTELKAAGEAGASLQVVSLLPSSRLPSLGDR

APBA1_1, Q02410 = target: T8, APBA1_1, Q02410
T8 sequence (Q02410 651-752, limits assumed, looked up): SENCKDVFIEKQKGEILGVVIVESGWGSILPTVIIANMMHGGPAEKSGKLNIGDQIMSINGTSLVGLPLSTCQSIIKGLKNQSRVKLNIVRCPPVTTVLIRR

GRIP1_2, Q9Y3R0 = target: T9, GRIP1_2, Q9Y3R0
T9 sequence (Q9Y3R0 145-248, limits assumed, looked up): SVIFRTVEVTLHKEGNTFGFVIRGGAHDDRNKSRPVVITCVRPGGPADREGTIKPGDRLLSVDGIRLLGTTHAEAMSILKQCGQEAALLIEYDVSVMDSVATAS

DVL3, Q92997 = target: T10, DVL3, Q92997
T10 sequence (Q92997 244-331, limits assumed, looked up): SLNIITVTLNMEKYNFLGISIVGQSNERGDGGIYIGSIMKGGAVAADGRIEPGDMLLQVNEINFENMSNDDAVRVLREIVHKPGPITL

TJP2_1, Q9UDY2 = target: TJP2_1, Q9UDY2
IL16_1, Q14005 = target: IL16_1, Q14005
Inadl_10, Q8NI35 = target: Inadl_10, Q8NI35
NHERF4_4, Q86UT5 = target: NHERF4_4, Q86UT5
NHERF4_1, Q86UT5-2 = target: NHERF4_1, Q86UT5-2
SNTG1, Q9NSN8 = target: T11, SNTG1, Q9NSN8
T11 sequence (Q9NSN8 52-150, limits assumed, looked up): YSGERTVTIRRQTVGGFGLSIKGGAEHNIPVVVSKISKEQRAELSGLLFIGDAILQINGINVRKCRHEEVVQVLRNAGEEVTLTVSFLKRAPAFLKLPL

LIMK2, P53671 = target: LIMK2, P53671
[1] = plain residues with an end cap or a label only (N-terminal biotin on a linker: ttds)
[2] = plain residues with an end cap or a label only (N-terminal biotin on a linker: ado-ado)

Sequence of MAGI2_2, Q86UL8 (Q86UL8 410-522): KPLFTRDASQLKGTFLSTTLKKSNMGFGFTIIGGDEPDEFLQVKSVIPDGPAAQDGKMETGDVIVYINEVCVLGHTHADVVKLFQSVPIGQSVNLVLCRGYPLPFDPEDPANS
Sequence of MAST2, Q6P0Q8 (Q6P0Q8 1099-1202): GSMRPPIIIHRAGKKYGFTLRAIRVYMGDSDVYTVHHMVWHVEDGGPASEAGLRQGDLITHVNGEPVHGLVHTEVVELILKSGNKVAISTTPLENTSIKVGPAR
Sequence of DLG5_1, Q8TDM6 (Q8TDM6 617-713): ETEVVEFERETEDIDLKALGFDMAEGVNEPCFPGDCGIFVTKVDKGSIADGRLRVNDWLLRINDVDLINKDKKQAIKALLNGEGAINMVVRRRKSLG
Sequence of DLG1_2, Q12959 (Q12959 314-412): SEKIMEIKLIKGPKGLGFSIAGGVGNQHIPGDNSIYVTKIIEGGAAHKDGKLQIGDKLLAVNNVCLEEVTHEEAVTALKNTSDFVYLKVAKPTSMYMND
Sequence of NHERF4_1, Q86UT5-2 (Q86UT5 other isoform, or with tags, fused parts or gaps): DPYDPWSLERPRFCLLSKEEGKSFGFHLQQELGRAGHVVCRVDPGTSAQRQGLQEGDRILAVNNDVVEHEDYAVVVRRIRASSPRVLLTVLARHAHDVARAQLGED
Sequence of Inadl_8, Q8NI35 (Q8NI35 1425-1530): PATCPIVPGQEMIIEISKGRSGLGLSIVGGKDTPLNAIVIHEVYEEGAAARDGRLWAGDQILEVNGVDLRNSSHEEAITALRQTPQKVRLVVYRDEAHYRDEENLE
Sequence of GRIP2_3, Q9C0E4 (Q9C0E4 238-339): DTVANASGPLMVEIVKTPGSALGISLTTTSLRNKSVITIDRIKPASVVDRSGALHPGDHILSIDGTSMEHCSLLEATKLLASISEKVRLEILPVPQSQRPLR
Sequence of TJP2_1, Q9UDY2 (Q9UDY2 24-128): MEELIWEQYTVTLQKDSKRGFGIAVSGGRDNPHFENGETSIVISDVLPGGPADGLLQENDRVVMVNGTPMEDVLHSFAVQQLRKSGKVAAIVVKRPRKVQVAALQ
Sequence of IL16_1, Q14005 (Q14005 210-306): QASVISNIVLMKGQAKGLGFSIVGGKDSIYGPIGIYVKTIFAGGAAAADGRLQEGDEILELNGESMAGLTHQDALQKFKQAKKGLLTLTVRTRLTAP
Sequence of ARHGEF12, Q9NZN5-2 (Q9NZN5 other isoform, or with tags, fused parts or gaps): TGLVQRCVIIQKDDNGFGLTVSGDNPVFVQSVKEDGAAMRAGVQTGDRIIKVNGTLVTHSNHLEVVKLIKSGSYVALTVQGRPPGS
Sequence of LIMK2, P53671 (P53671 143-248): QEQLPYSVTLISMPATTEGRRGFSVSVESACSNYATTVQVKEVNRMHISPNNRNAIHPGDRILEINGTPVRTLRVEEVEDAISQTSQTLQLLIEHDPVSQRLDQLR
Sequence of NHERF4_4, Q86UT5 (Q86UT5 464-550): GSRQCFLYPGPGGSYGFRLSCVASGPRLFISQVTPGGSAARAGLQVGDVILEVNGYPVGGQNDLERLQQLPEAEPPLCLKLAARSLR
Sequence of Inadl_10, Q8NI35 (Q8NI35 1673-1763): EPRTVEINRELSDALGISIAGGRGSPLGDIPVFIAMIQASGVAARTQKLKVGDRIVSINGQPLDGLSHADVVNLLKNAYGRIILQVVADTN
Sequence of MAGI2_5, Q86UL8 (Q86UL8 915-1017): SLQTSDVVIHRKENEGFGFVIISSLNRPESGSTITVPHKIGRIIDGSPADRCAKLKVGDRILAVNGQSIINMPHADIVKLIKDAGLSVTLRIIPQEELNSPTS

RTRQRNETQV [HPV51-E6, P26554] was tested. Which pKd (HTRA4, P83105; [1]) did it give?
The pKd was “below the threshold”.

And the pKd (SNTB1, Q13884; [1])?
Its pKd is 4.09.

And the pKd (MAST2, Q6P0Q8; [1])?
The pKd was 5.27.

What about the pKd (LIN7C, Q9NUP9; [1]) of the same binder?
The pKd was 3.84.

What about the pKd (TX1BP3, O14907; [1]) of the same binder?
The pKd was 4.13.

And the pKd (MAGI2_2, Q86UL8; [1])?
The pKd was 6.66.

And the pKd (DLG2_3, Q15700; [1])?
Its pKd is 4.75.

And the pKd (SNTA1, Q13424; [1])?
Its pKd is 4.23.

And the pKd (ARHGEF12, Q9NZN5-2; [1])?
The pKd was 3.73.

And the pKd (DLG1_2, Q12959; [1])?
Its pKd is 5.13.

What about the pKd (DLG5_1, Q8TDM6; [1]) of the same binder?
Its pKd is “below the threshold”.

What about the pKd (Inadl_8, Q8NI35; [1]) of the same binder?
Its pKd is “below the threshold”.

And the pKd (GRIP2_3, Q9C0E4; [1])?
Its pKd is “below the threshold”.

What about the pKd (RAPGEF6, Q8TEU7; [1]) of the same binder?
The pKd was “below the threshold”.

And the pKd (MAGI2_5, Q86UL8; [1])?
Its pKd is 4.12.

What about the pKd (RHPN1, Q8TCX5; [1]) of the same binder?
The pKd was 3.7.

And the pKd (APBA1_1, Q02410; [1])?
Its pKd is “below the threshold”.

What about the pKd (GRIP1_2, Q9Y3R0; [1]) of the same binder?
Its pKd is 3.46.

And the pKd (DVL3, Q92997; [1])?
The pKd was “below the threshold”.

And the pKd (TJP2_1, Q9UDY2; [1])?
The pKd was “below the threshold”.

What about the pKd (IL16_1, Q14005; [1]) of the same binder?
The pKd was “below the threshold”.

And the pKd (Inadl_10, Q8NI35; [1])?
Its pKd is “below the threshold”.

What about the pKd (NHERF4_4, Q86UT5; [1]) of the same binder?
Its pKd is “below the threshold”.

What about the pKd (NHERF4_1, Q86UT5-2; [1]) of the same binder?
Its pKd is “below the threshold”.

What about the pKd (SNTG1, Q9NSN8; [1]) of the same binder?
Its pKd is 3.98.

What about the pKd (LIMK2, P53671; [1]) of the same binder?
The pKd was “below the threshold”.

Which results are given for DPRNTQTSQI [ABRAXAS2, Q15018]?
pKd (HTRA4, P83105; [1]): 3.48; pKd (SNTB1, Q13884; [1]): 3.96; pKd (MAST2, Q6P0Q8; [1]): 4.55; pKd (LIN7C, Q9NUP9; [1]): 3.66; pKd (TX1BP3, O14907; [1]): 3.71; pKd (MAGI2_2, Q86UL8; [1]): 3.59; pKd (DLG2_3, Q15700; [1]): 3.53; pKd (SNTA1, Q13424; [1]): below the threshold; pKd (ARHGEF12, Q9NZN5-2; [1]): 4.44; pKd (DLG1_2, Q12959; [1]): 3.84; pKd (DLG5_1, Q8TDM6; [1]): below the threshold; pKd (Inadl_8, Q8NI35; [1]): 3.54; pKd (GRIP2_3, Q9C0E4; [1]): 3.6; pKd (RAPGEF6, Q8TEU7; [1]): below the threshold; pKd (MAGI2_5, Q86UL8; [1]): below the threshold; pKd (RHPN1, Q8TCX5; [1]): 4.43; pKd (APBA1_1, Q02410; [1]): below the threshold; pKd (GRIP1_2, Q9Y3R0; [1]): 3.57; pKd (DVL3, Q92997; [1]): below the threshold; pKd (TJP2_1, Q9UDY2; [1]): below the threshold; pKd (IL16_1, Q14005; [1]): 3.59; pKd (Inadl_10, Q8NI35; [1]): 3.52; pKd (NHERF4_4, Q86UT5; [1]): below the threshold; pKd (NHERF4_1, Q86UT5-2; [1]): below the threshold; pKd (SNTG1, Q9NSN8; [1]): below the threshold; pKd (LIMK2, P53671; [1]): below the threshold

TETASVCTKV [SLC23A1, Q9UHI7] was tested. Which pKd (HTRA4, P83105; [2]) did it give?
Its pKd is 4.15.

And the pKd (SNTB1, Q13884; [2])?
Its pKd is 4.17.

What about the pKd (MAST2, Q6P0Q8; [2]) of the same binder?
The pKd was 5.47.

What about the pKd (LIN7C, Q9NUP9; [2]) of the same binder?
The pKd was 4.08.

What about the pKd (TX1BP3, O14907; [2]) of the same binder?
The pKd was 3.76.

And the pKd (MAGI2_2, Q86UL8; [2])?
Its pKd is 3.48.

What about the pKd (DLG2_3, Q15700; [2]) of the same binder?
The pKd was “below the threshold”.

What about the pKd (SNTA1, Q13424; [2]) of the same binder?
Its pKd is 4.

And the pKd (ARHGEF12, Q9NZN5-2; [2])?
Its pKd is 3.88.

What about the pKd (DLG1_2, Q12959; [2]) of the same binder?
Its pKd is 4.4.

What about the pKd (DLG5_1, Q8TDM6; [2]) of the same binder?
Its pKd is “below the threshold”.

And the pKd (Inadl_8, Q8NI35; [2])?
Its pKd is 4.01.

And the pKd (GRIP2_3, Q9C0E4; [2])?
Its pKd is “below the threshold”.

And the pKd (RAPGEF6, Q8TEU7; [2])?
The pKd was “below the threshold”.

And the pKd (MAGI2_5, Q86UL8; [2])?
The pKd was 4.46.

What about the pKd (RHPN1, Q8TCX5; [2]) of the same binder?
The pKd was 4.38.

What about the pKd (APBA1_1, Q02410; [2]) of the same binder?
Its pKd is “below the threshold”.

And the pKd (GRIP1_2, Q9Y3R0; [2])?
The pKd was “below the threshold”.

And the pKd (DVL3, Q92997; [2])?
Its pKd is “below the threshold”.

And the pKd (TJP2_1, Q9UDY2; [2])?
The pKd was 3.72.

And the pKd (IL16_1, Q14005; [2])?
The pKd was “below the threshold”.

And the pKd (Inadl_10, Q8NI35; [2])?
The pKd was 3.78.

And the pKd (NHERF4_4, Q86UT5; [2])?
Its pKd is 3.89.

And the pKd (NHERF4_1, Q86UT5-2; [2])?
The pKd was 4.53.

And the pKd (SNTG1, Q9NSN8; [2])?
The pKd was 3.76.

And the pKd (LIMK2, P53671; [2])?
The pKd was “below the threshold”.
